From patent US20070053889A1 (AMSTERDAM MOLECULAR THERAPEUTICS AMT IP B V, published 2007)

Biological target: T1, integrin α4β7 expressed on transduced human CD4+ T cells (human, UniProt P13612 34-1032; P26010 20-798)
T1 construct: whole, on cells; Endogenous integrin on sorted human CD4+ cells transduced with the GFP or IL-10-GFP retroviral vector; The cells were CFDSE-labelled in the adhesion assay; also called αA4β7; gut-homing molecule α4β7
Experiment: cell adhesion assay with blocking mAbs
Experimental: Adhesion of sorted CD4⁺ cells, transduced with GFP (1 donor) or IL-10-GFP (2 donors), to MAdCAM-1 transfected 293T cells was determined after preincubation with or without the following mAbs: 145 2C11 (control), act-1 (αA4β7) or MECA-367 (αMAdCAM-1). Fluorescent-labelled CD4⁺ cells were added to a 96 well plate that contained confluent MAdCAM-1 transfected 293T cells or control 293T cells. Relative binding inhibition was referred to the maximum binding achieved in the absence of mAbs (as described in Materials and Methods).
We investigated whether transduced CD4⁺ cells were able to bind to the mucosal addressin MAdCAM-1 measuring their adhesion to 293T cells stably expressing the murine MAdCAM cDNA (kindly provided by Dr. S. Fong, Genentech Inc., San Fransisco, Calif., USA). […] Fluorescence was measured in a Cytofluor plate reader (Perceptive Biosystems, Frarningham, Mass., USA) before and after washing. The adherence was calculated as the percentage of fluorescent cells remaining after washing. The maximum binding was calculated as the difference in adherence to MAdCAM-1 transfected and control 293T cells.

T1 sequence (P13612 34-1032, chain 1 of 2): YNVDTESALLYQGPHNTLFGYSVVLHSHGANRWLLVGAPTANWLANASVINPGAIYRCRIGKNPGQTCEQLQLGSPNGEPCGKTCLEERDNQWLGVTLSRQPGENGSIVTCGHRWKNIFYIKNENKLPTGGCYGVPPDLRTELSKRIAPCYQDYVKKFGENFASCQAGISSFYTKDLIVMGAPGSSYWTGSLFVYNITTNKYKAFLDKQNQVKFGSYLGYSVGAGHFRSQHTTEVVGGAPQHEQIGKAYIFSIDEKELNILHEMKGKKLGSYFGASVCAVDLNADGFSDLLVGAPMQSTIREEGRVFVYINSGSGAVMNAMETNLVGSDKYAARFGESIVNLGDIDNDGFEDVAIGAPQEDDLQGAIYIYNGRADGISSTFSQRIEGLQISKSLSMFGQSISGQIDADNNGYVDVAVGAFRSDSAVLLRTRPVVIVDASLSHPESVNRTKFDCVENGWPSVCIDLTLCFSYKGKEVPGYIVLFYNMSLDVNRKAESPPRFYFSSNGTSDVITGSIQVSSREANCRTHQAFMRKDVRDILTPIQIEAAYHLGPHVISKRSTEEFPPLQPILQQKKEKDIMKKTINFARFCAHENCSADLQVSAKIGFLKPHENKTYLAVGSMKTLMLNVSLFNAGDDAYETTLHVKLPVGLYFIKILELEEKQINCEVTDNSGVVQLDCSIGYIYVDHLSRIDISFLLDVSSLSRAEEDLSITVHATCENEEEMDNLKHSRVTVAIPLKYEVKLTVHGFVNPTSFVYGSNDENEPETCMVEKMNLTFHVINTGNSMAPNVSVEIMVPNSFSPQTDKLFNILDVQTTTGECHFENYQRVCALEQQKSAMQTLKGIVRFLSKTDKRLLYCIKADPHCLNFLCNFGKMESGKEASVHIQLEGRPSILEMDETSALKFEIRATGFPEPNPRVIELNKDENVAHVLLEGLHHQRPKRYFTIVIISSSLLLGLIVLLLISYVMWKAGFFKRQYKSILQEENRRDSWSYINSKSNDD
T1 sequence (P26010 20-798, chain 2 of 2): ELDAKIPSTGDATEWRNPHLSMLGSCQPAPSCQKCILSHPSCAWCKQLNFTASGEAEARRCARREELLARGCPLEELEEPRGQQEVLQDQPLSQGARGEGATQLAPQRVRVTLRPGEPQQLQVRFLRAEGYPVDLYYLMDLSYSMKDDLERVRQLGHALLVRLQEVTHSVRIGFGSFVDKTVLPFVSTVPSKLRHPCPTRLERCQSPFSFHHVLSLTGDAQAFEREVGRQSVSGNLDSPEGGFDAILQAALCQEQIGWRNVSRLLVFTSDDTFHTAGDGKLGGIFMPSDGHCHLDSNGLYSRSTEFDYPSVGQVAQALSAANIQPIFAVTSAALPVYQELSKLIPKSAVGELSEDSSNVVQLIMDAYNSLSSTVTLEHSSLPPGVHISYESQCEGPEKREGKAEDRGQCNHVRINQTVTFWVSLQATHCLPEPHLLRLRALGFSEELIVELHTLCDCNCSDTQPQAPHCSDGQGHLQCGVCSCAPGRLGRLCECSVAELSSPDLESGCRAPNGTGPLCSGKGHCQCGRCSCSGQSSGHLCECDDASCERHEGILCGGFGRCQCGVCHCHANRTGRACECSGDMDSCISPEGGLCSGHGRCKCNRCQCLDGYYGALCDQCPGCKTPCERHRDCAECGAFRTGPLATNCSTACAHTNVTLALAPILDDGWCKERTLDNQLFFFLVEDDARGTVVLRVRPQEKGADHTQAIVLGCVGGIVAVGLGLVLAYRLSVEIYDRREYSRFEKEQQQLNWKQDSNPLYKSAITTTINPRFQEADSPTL

binding result: binds
B1: murine MAdCAM-1 stably expressed on 293T cells (ligand, UniProt Q61826 22-405, looked up)
chain: QSFQVNPPESEVAVAMGTSLQITCSMSCDEGVARVHWRGLDTSLGSVQTLPGSSILSVRGMLSDTGTPVCVGSCGSRSFQHSVKILVYAFPDQLVVSPEFLVPGQDQVVSCTAHNIWPADPNSLSFALLLGEQRLEGAQALEPEQEEEIQEAEGTPLFRMTQRWRLPSLGTPAPPALHCQVTMQLPKLVLTHRKEIPVLQSQTSPKPPNTTSAEPYILTSSSTAEAVSTGLNITTLPSAPPYPKLSPRTLSSEGPCRPKIHQDLEAGWELLCEASCGPGVTVRWTLAPGDLATYHKREAGAQAWLSVLPPGPMVEGWFQCRQDPGGEVTNLYVPGQVTPNSSSTVVLWIGSLVLGLLALVFLAYRLWKCYRPGPRPDTSSCTHL
notes: whole, on cells; 293T cells stably expressing the murine MAdCAM cDNA (from Dr. S. Fong, Genentech); also called mucosal addressin MAdCAM-1
